Earlier results in patent US20010028895A1, “Methods of treating alzheimer's disease” (priority 2000, published 2001).

Experiments:
[1] = among the eight 22-mer domains of apo A-I
[2] = among the eight 22-mer domains of apo A-I; remark: listed apart in the source
[3] = among the eight 22-mer domains of apo A-I; remark: listed apart in the source
[4] = among the eight 22-mer domains of apo A-I; remark: listed apart in the source

In the case of “220-241: synthesized C-terminal 22-mer amphipathic domain of human apo A-I, residues 220-241 (PVLESFKVSFLSALEEYTKKLN; UniProt P02647 244-265, looked up, fragment)”, the “partition coefficient into POPC liposomes” value [1] is listed as “highest partition coefficient”, the “exclusion pressure for penetration into egg yolk phosphatidylcholine monolayer” value [2] is listed as “highest exclusion pressure” and the “clarifying multilamellar vesicles of DMPC” value [3] is listed as “effective”. The “reduction in the enthalpy of the gel-to-liquid crystalline phase transition of DMPC MLVs” value [4] was “greatest reduction”.

For “44-65: synthesized N-terminal 22-mer amphipathic domain of human apo A-I, residues 44-65 (LKLLDNWDSVTSTFSKLREQLG; UniProt P02647 68-89, looked up, fragment)”, the “partition coefficient into POPC liposomes” value [1] is listed as “highest partition coefficient”, the “exclusion pressure for penetration into egg yolk phosphatidylcholine monolayer” value [2] is listed as “highest exclusion pressure” and the “clarifying multilamellar vesicles of DMPC” value [3] is listed as “effective”. The “reduction in the enthalpy of the gel-to-liquid crystalline phase transition of DMPC MLVs” value [4] was “greatest reduction”.
